OD450 nm and Ratio OD(Variant)/OD(WT) data for 19 molecules are collected here from patent US20240400654A1.

The target of assay [1] is HRgpA-6H (Porphyromonas gingivalis) (UniProt P28784). Nature of the assay: ELISA, FASEBA screening, coated HRgpA-6H 0.0625 ug/ml. In general terms: In an ELISA, binding on a coated surface is turned into a signal by an enzyme label.
Assay [2] has the same target. Nature of the assay: ELISA, FASEBA screening, coated HRgpA-6H; variant OD over parental WT Fab OD.

Where “and” joins values, the source holds several entries; their conditions need not be identical. Equal entries are not always repeated.

Sequence of UniProt P28784 (P28784 228-860): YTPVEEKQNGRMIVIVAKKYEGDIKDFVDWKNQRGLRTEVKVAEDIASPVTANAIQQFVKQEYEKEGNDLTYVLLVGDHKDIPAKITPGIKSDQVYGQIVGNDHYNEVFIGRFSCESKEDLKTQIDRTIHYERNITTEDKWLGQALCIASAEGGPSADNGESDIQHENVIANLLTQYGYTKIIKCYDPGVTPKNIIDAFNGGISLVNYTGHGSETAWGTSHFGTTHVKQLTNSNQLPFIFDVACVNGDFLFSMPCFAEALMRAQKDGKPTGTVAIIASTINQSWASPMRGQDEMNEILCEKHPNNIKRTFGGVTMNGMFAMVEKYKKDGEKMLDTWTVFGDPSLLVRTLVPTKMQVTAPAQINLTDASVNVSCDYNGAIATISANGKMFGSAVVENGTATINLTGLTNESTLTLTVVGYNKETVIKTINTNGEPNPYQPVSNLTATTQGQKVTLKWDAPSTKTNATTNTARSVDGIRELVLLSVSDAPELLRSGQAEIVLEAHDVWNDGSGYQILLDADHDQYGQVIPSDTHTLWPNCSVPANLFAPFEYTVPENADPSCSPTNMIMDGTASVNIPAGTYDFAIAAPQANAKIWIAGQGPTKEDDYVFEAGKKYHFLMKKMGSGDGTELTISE

B1: KB001 parental mouse Fab FASEBA variant VH G99S (Fab, V domains shown)
VH: EVQLKQSGPGLVAPSQSLSITCTVSGFSLSIYSVHWVRQPPGKGLEWLGMIWGGGSSDYNSALKSRLSISKDNSKSQVFLKMNSLQTDDTAMYYCARNSNFYAMDYWGQGTSVTVSS
VL: QIVLTQSPAIMSASLGERVTMTCTASSSVSSSFLHWYQQKPGSSPQLWIYSTSNLASGVPARFSGSGSGTSYSLTISSMEAEDAATYYCHQYHHSPYIYTFGGGTKLEIK
As for B1, in assay [1], the OD450 nm was 0.769 and 0.739 and 0.77. In assay [2], the Ratio OD(Variant)/OD(WT) is 0.965 and 0.927 and 0.966.

B2: KB001 parental mouse Fab FASEBA variant VH N100G (Fab, V domains shown)
VH: EVQLKQSGPGLVAPSQSLSITCTVSGFSLSIYSVHWVRQPPGKGLEWLGMIWGGGSSDYNSALKSRLSISKDNSKSQVFLKMNSLQTDDTAMYYCARNGGFYAMDYWGQGTSVTVSS
VL: QIVLTQSPAIMSASLGERVTMTCTASSSVSSSFLHWYQQKPGSSPQLWIYSTSNLASGVPARFSGSGSGTSYSLTISSMEAEDAATYYCHQYHHSPYIYTFGGGTKLEIK
Regarding B2, the OD450 nm in assay [1] is 0.769 and 0.814. The Ratio OD(Variant)/OD(WT) in assay [2] was 0.908 and 0.961.

B3: KB001 parental mouse Fab FASEBA variant VH N100T (Fab, V domains shown)
VH: EVQLKQSGPGLVAPSQSLSITCTVSGFSLSIYSVHWVRQPPGKGLEWLGMIWGGGSSDYNSALKSRLSISKDNSKSQVFLKMNSLQTDDTAMYYCARNGTFYAMDYWGQGTSVTVSS
VL: QIVLTQSPAIMSASLGERVTMTCTASSSVSSSFLHWYQQKPGSSPQLWIYSTSNLASGVPARFSGSGSGTSYSLTISSMEAEDAATYYCHQYHHSPYIYTFGGGTKLEIK
B3: in assay [1], the OD450 nm was 0.756 and 0.783. The Ratio OD(Variant)/OD(WT) in assay [2] is 0.893 and 0.924.

B4: KB001 parental mouse Fab FASEBA variant VH N100A (Fab, V domains shown)
VH: EVQLKQSGPGLVAPSQSLSITCTVSGFSLSIYSVHWVRQPPGKGLEWLGMIWGGGSSDYNSALKSRLSISKDNSKSQVFLKMNSLQTDDTAMYYCARNGAFYAMDYWGQGTSVTVSS
VL: QIVLTQSPAIMSASLGERVTMTCTASSSVSSSFLHWYQQKPGSSPQLWIYSTSNLASGVPARFSGSGSGTSYSLTISSMEAEDAATYYCHQYHHSPYIYTFGGGTKLEIK
As for B4, the OD450 nm in assay [1] turned out to be 0.809. Moreover, in assay [2], the Ratio OD(Variant)/OD(WT) stood at 0.955.

B5: KB001 parental mouse Fab FASEBA variant VH N100F (Fab, V domains shown)
VH: EVQLKQSGPGLVAPSQSLSITCTVSGFSLSIYSVHWVRQPPGKGLEWLGMIWGGGSSDYNSALKSRLSISKDNSKSQVFLKMNSLQTDDTAMYYCARNGFFYAMDYWGQGTSVTVSS
VL: QIVLTQSPAIMSASLGERVTMTCTASSSVSSSFLHWYQQKPGSSPQLWIYSTSNLASGVPARFSGSGSGTSYSLTISSMEAEDAATYYCHQYHHSPYIYTFGGGTKLEIK
Molecule B5 showed an OD450 nm in assay [1] of 0.779. In addition, the Ratio OD(Variant)/OD(WT) in assay [2] stood at 0.92.

B6: KB001 parental mouse Fab FASEBA variant VH G99A (Fab, V domains shown)
VH: EVQLKQSGPGLVAPSQSLSITCTVSGFSLSIYSVHWVRQPPGKGLEWLGMIWGGGSSDYNSALKSRLSISKDNSKSQVFLKMNSLQTDDTAMYYCARNANFYAMDYWGQGTSVTVSS
VL: QIVLTQSPAIMSASLGERVTMTCTASSSVSSSFLHWYQQKPGSSPQLWIYSTSNLASGVPARFSGSGSGTSYSLTISSMEAEDAATYYCHQYHHSPYIYTFGGGTKLEIK
In assay [1], B6 had an OD450 nm of 0.74. Besides, in assay [2], the Ratio OD(Variant)/OD(WT) worked out at 0.928.

B7: KB001 parental mouse Fab FASEBA variant VH N100I (Fab, V domains shown)
VH: EVQLKQSGPGLVAPSQSLSITCTVSGFSLSIYSVHWVRQPPGKGLEWLGMIWGGGSSDYNSALKSRLSISKDNSKSQVFLKMNSLQTDDTAMYYCARNGIFYAMDYWGQGTSVTVSS
VL: QIVLTQSPAIMSASLGERVTMTCTASSSVSSSFLHWYQQKPGSSPQLWIYSTSNLASGVPARFSGSGSGTSYSLTISSMEAEDAATYYCHQYHHSPYIYTFGGGTKLEIK
Take B7: the OD450 nm in assay [1] was 0.796 and 0.833. In addition, the Ratio OD(Variant)/OD(WT) in assay [2] is 0.94 and 0.983.

B8: KB001 parental mouse Fab FASEBA variant VH N100P (Fab, V domains shown)
VH: EVQLKQSGPGLVAPSQSLSITCTVSGFSLSIYSVHWVRQPPGKGLEWLGMIWGGGSSDYNSALKSRLSISKDNSKSQVFLKMNSLQTDDTAMYYCARNGPFYAMDYWGQGTSVTVSS
VL: QIVLTQSPAIMSASLGERVTMTCTASSSVSSSFLHWYQQKPGSSPQLWIYSTSNLASGVPARFSGSGSGTSYSLTISSMEAEDAATYYCHQYHHSPYIYTFGGGTKLEIK
In assay [1], B8 yielded an OD450 nm of 0.757. In addition, the Ratio OD(Variant)/OD(WT) in assay [2] is 0.894.

B9: KB001 parental mouse Fab FASEBA variant VH N100E (Fab, V domains shown)
VH: EVQLKQSGPGLVAPSQSLSITCTVSGFSLSIYSVHWVRQPPGKGLEWLGMIWGGGSSDYNSALKSRLSISKDNSKSQVFLKMNSLQTDDTAMYYCARNGEFYAMDYWGQGTSVTVSS
VL: QIVLTQSPAIMSASLGERVTMTCTASSSVSSSFLHWYQQKPGSSPQLWIYSTSNLASGVPARFSGSGSGTSYSLTISSMEAEDAATYYCHQYHHSPYIYTFGGGTKLEIK
In the case of B9, the OD450 nm in assay [1] came out at 0.823. The Ratio OD(Variant)/OD(WT) in assay [2] is 0.972.

B10: KB001 parental mouse Fab FASEBA variant VH N100Q (Fab, V domains shown)
VH: EVQLKQSGPGLVAPSQSLSITCTVSGFSLSIYSVHWVRQPPGKGLEWLGMIWGGGSSDYNSALKSRLSISKDNSKSQVFLKMNSLQTDDTAMYYCARNGQFYAMDYWGQGTSVTVSS
VL: QIVLTQSPAIMSASLGERVTMTCTASSSVSSSFLHWYQQKPGSSPQLWIYSTSNLASGVPARFSGSGSGTSYSLTISSMEAEDAATYYCHQYHHSPYIYTFGGGTKLEIK
In turn, B10 returned an OD450 nm in assay [1] of 0.846. The Ratio OD(Variant)/OD(WT) in assay [2] was found to be 0.999.

B11: KB001 parental mouse Fab FASEBA variant VH G99Y (Fab, V domains shown)
VH: EVQLKQSGPGLVAPSQSLSITCTVSGFSLSIYSVHWVRQPPGKGLEWLGMIWGGGSSDYNSALKSRLSISKDNSKSQVFLKMNSLQTDDTAMYYCARNYNFYAMDYWGQGTSVTVSS
VL: QIVLTQSPAIMSASLGERVTMTCTASSSVSSSFLHWYQQKPGSSPQLWIYSTSNLASGVPARFSGSGSGTSYSLTISSMEAEDAATYYCHQYHHSPYIYTFGGGTKLEIK
Consider B11, for which, in assay [1], the OD450 nm amounted to 0.769. Moreover, the Ratio OD(Variant)/OD(WT) in assay [2] is 0.965.

B12: KB001 parental mouse Fab FASEBA variant VH G99N (Fab, V domains shown)
VH: EVQLKQSGPGLVAPSQSLSITCTVSGFSLSIYSVHWVRQPPGKGLEWLGMIWGGGSSDYNSALKSRLSISKDNSKSQVFLKMNSLQTDDTAMYYCARNNNFYAMDYWGQGTSVTVSS
VL: QIVLTQSPAIMSASLGERVTMTCTASSSVSSSFLHWYQQKPGSSPQLWIYSTSNLASGVPARFSGSGSGTSYSLTISSMEAEDAATYYCHQYHHSPYIYTFGGGTKLEIK
As to B12, the OD450 nm in assay [1] is 0.639 and 0.698. Further, in assay [2], the Ratio OD(Variant)/OD(WT) was 0.802 and 0.876.

B13: KB001 parental mouse Fab FASEBA variant VH N100S (Fab, V domains shown)
VH: EVQLKQSGPGLVAPSQSLSITCTVSGFSLSIYSVHWVRQPPGKGLEWLGMIWGGGSSDYNSALKSRLSISKDNSKSQVFLKMNSLQTDDTAMYYCARNGSFYAMDYWGQGTSVTVSS
VL: QIVLTQSPAIMSASLGERVTMTCTASSSVSSSFLHWYQQKPGSSPQLWIYSTSNLASGVPARFSGSGSGTSYSLTISSMEAEDAATYYCHQYHHSPYIYTFGGGTKLEIK
Take B13: the OD450 nm in assay [1] was 0.799 and 0.844 and 0.805. Also, the Ratio OD(Variant)/OD(WT) in assay [2] is 0.943 and 0.996 and 0.95.

B14: KB001 parental mouse Fab FASEBA variant VH N100L (Fab, V domains shown)
VH: EVQLKQSGPGLVAPSQSLSITCTVSGFSLSIYSVHWVRQPPGKGLEWLGMIWGGGSSDYNSALKSRLSISKDNSKSQVFLKMNSLQTDDTAMYYCARNGLFYAMDYWGQGTSVTVSS
VL: QIVLTQSPAIMSASLGERVTMTCTASSSVSSSFLHWYQQKPGSSPQLWIYSTSNLASGVPARFSGSGSGTSYSLTISSMEAEDAATYYCHQYHHSPYIYTFGGGTKLEIK
B14: in assay [1], the OD450 nm is 0.817 and 0.736 and 0.789. In addition, the Ratio OD(Variant)/OD(WT) in assay [2] was 0.965 and 0.869 and 0.932.

B15: KB001 parental mouse Fab FASEBA variant VH G99C (Fab, V domains shown)
VH: EVQLKQSGPGLVAPSQSLSITCTVSGFSLSIYSVHWVRQPPGKGLEWLGMIWGGGSSDYNSALKSRLSISKDNSKSQVFLKMNSLQTDDTAMYYCARNCNFYAMDYWGQGTSVTVSS
VL: QIVLTQSPAIMSASLGERVTMTCTASSSVSSSFLHWYQQKPGSSPQLWIYSTSNLASGVPARFSGSGSGTSYSLTISSMEAEDAATYYCHQYHHSPYIYTFGGGTKLEIK
The molecule B15 had an OD450 nm in assay [1] of 0.776. Also, the Ratio OD(Variant)/OD(WT) in assay [2] was 0.974.

B16: KB001 parental mouse Fab FASEBA variant VH N100K (Fab, V domains shown)
VH: EVQLKQSGPGLVAPSQSLSITCTVSGFSLSIYSVHWVRQPPGKGLEWLGMIWGGGSSDYNSALKSRLSISKDNSKSQVFLKMNSLQTDDTAMYYCARNGKFYAMDYWGQGTSVTVSS
VL: QIVLTQSPAIMSASLGERVTMTCTASSSVSSSFLHWYQQKPGSSPQLWIYSTSNLASGVPARFSGSGSGTSYSLTISSMEAEDAATYYCHQYHHSPYIYTFGGGTKLEIK
B16: the OD450 nm in assay [1] is 0.801 and 0.791. In assay [2], the Ratio OD(Variant)/OD(WT) was 0.946 and 0.934.

B17: KB001 parental mouse Fab FASEBA variant VH N100C (Fab, V domains shown)
VH: EVQLKQSGPGLVAPSQSLSITCTVSGFSLSIYSVHWVRQPPGKGLEWLGMIWGGGSSDYNSALKSRLSISKDNSKSQVFLKMNSLQTDDTAMYYCARNGCFYAMDYWGQGTSVTVSS
VL: QIVLTQSPAIMSASLGERVTMTCTASSSVSSSFLHWYQQKPGSSPQLWIYSTSNLASGVPARFSGSGSGTSYSLTISSMEAEDAATYYCHQYHHSPYIYTFGGGTKLEIK
In assay [1], B17 displayed an OD450 nm of 0.688. Further, the Ratio OD(Variant)/OD(WT) in assay [2] is 0.812.

B18: KB001 parental mouse Fab FASEBA variant VH N100R (Fab, V domains shown)
VH: EVQLKQSGPGLVAPSQSLSITCTVSGFSLSIYSVHWVRQPPGKGLEWLGMIWGGGSSDYNSALKSRLSISKDNSKSQVFLKMNSLQTDDTAMYYCARNGRFYAMDYWGQGTSVTVSS
VL: QIVLTQSPAIMSASLGERVTMTCTASSSVSSSFLHWYQQKPGSSPQLWIYSTSNLASGVPARFSGSGSGTSYSLTISSMEAEDAATYYCHQYHHSPYIYTFGGGTKLEIK
B18 registered an OD450 nm in assay [1] of 0.788. For the same molecule, the Ratio OD(Variant)/OD(WT) in assay [2] was found to be 0.93.

B19: KB001 parental mouse Fab FASEBA variant VH N100Y (Fab, V domains shown)
VH: EVQLKQSGPGLVAPSQSLSITCTVSGFSLSIYSVHWVRQPPGKGLEWLGMIWGGGSSDYNSALKSRLSISKDNSKSQVFLKMNSLQTDDTAMYYCARNGYFYAMDYWGQGTSVTVSS
VL: QIVLTQSPAIMSASLGERVTMTCTASSSVSSSFLHWYQQKPGSSPQLWIYSTSNLASGVPARFSGSGSGTSYSLTISSMEAEDAATYYCHQYHHSPYIYTFGGGTKLEIK
With B19, in assay [1], the OD450 nm is 0.757 and 0.784 and 0.699. Moreover, in assay [2], the Ratio OD(Variant)/OD(WT) is 0.894 and 0.926 and 0.825.
